From patent US20140213513A1 (Sanofi, priority 2012, published 2014) come the findings set out here.

The chains are these.
B1: exendin-4 peptide analogue SEQ ID NO: 15 (peptide)
peptide: Y[Aib]QGTFTSDLSIQK([γGlu-Palmitoyl])EQRAA[Aib]EFIEWLKNTGPSSGAPPPS-NH2
modifications: N-terminus assumed
SMILES: CCCCCCCCCCCCCCCC(=O)N[C@@H](CCC(=O)NCCCC[C@H](NC(=O)[C@H](CCC(N)=O)NC(=O)[C@@H](NC(=O)[C@H](CO)NC(=O)[C@H](CC(C)C)NC(=O)[C@H](CC(=O)O)NC(=O)[C@H](CO)NC(=O)[C@@H](NC(=O)[C@H](Cc1ccccc1)NC(=O)[C@@H](NC(=O)CNC(=O)[C@H](CCC(N)=O)NC(=O)C(C)(C)NC(=O)[C@@H](N)Cc1ccc(O)cc1)[C@@H](C)O)[C@@H](C)O)[C@@H](C)CC)C(=O)N[C@@H](CCC(=O)O)C(=O)N[C@@H](CCC(N)=O)C(=O)N[C@@H](CCCNC(=N)N)C(=O)N[C@@H](C)C(=O)N[C@@H](C)C(=O)NC(C)(C)C(=O)N[C@@H](CCC(=O)O)C(=O)N[C@@H](Cc1ccccc1)C(=O)N[C@H](C(=O)N[C@@H](CCC(=O)O)C(=O)N[C@@H](Cc1c[nH]c2ccccc12)C(=O)N[C@@H](CC(C)C)C(=O)N[C@@H](CCCCN)C(=O)N[C@@H](CC(N)=O)C(=O)N[C@H](C(=O)NCC(=O)N1CCC[C@H]1C(=O)N[C@@H](CO)C(=O)N[C@@H](CO)C(=O)NCC(=O)N[C@@H](C)C(=O)N1CCC[C@H]1C(=O)N1CCC[C@H]1C(=O)N1CCC[C@H]1C(=O)N[C@@H](CO)C(N)=O)[C@@H](C)O)[C@@H](C)CC)C(=O)O
B2: exendin-4 peptide analogue SEQ ID NO: 66 (peptide)
peptide: Y[Aib]QGTFTSDLSKQK([γGlu-Palmitoyl])DSRAAQDFIEWLKAGGPSSGAPPPS-NH2
modifications: N-terminus assumed
SMILES: CCCCCCCCCCCCCCCC(=O)N[C@@H](CCC(=O)NCCCC[C@H](NC(=O)[C@H](CCC(N)=O)NC(=O)[C@H](CCCCN)NC(=O)[C@H](CO)NC(=O)[C@H](CC(C)C)NC(=O)[C@H](CC(=O)O)NC(=O)[C@H](CO)NC(=O)[C@@H](NC(=O)[C@H](Cc1ccccc1)NC(=O)[C@@H](NC(=O)CNC(=O)[C@H](CCC(N)=O)NC(=O)C(C)(C)NC(=O)[C@@H](N)Cc1ccc(O)cc1)[C@@H](C)O)[C@@H](C)O)C(=O)N[C@@H](CC(=O)O)C(=O)N[C@@H](CO)C(=O)N[C@@H](CCCNC(=N)N)C(=O)N[C@@H](C)C(=O)N[C@@H](C)C(=O)N[C@@H](CCC(N)=O)C(=O)N[C@@H](CC(=O)O)C(=O)N[C@@H](Cc1ccccc1)C(=O)N[C@H](C(=O)N[C@@H](CCC(=O)O)C(=O)N[C@@H](Cc1c[nH]c2ccccc12)C(=O)N[C@@H](CC(C)C)C(=O)N[C@@H](CCCCN)C(=O)N[C@@H](C)C(=O)NCC(=O)NCC(=O)N1CCC[C@H]1C(=O)N[C@@H](CO)C(=O)N[C@@H](CO)C(=O)NCC(=O)N[C@@H](C)C(=O)N1CCC[C@H]1C(=O)N1CCC[C@H]1C(=O)N1CCC[C@H]1C(=O)N[C@@H](CO)C(N)=O)[C@@H](C)CC)C(=O)O
B3: exendin-4 peptide analogue SEQ ID NO: 12 (peptide)
peptide: Y[Aib]QGTFTSDLSIQK([γGlu-Palmitoyl])EKAAA[Aib]EFIEWLKNTGPSSGAPPPS-NH2
modifications: N-terminus assumed
SMILES: CCCCCCCCCCCCCCCC(=O)N[C@@H](CCC(=O)NCCCC[C@H](NC(=O)[C@H](CCC(N)=O)NC(=O)[C@@H](NC(=O)[C@H](CO)NC(=O)[C@H](CC(C)C)NC(=O)[C@H](CC(=O)O)NC(=O)[C@H](CO)NC(=O)[C@@H](NC(=O)[C@H](Cc1ccccc1)NC(=O)[C@@H](NC(=O)CNC(=O)[C@H](CCC(N)=O)NC(=O)C(C)(C)NC(=O)[C@@H](N)Cc1ccc(O)cc1)[C@@H](C)O)[C@@H](C)O)[C@@H](C)CC)C(=O)N[C@@H](CCC(=O)O)C(=O)N[C@@H](CCCCN)C(=O)N[C@@H](C)C(=O)N[C@@H](C)C(=O)N[C@@H](C)C(=O)NC(C)(C)C(=O)N[C@@H](CCC(=O)O)C(=O)N[C@@H](Cc1ccccc1)C(=O)N[C@H](C(=O)N[C@@H](CCC(=O)O)C(=O)N[C@@H](Cc1c[nH]c2ccccc12)C(=O)N[C@@H](CC(C)C)C(=O)N[C@@H](CCCCN)C(=O)N[C@@H](CC(N)=O)C(=O)N[C@H](C(=O)NCC(=O)N1CCC[C@H]1C(=O)N[C@@H](CO)C(=O)N[C@@H](CO)C(=O)NCC(=O)N[C@@H](C)C(=O)N1CCC[C@H]1C(=O)N1CCC[C@H]1C(=O)N1CCC[C@H]1C(=O)N[C@@H](CO)C(N)=O)[C@@H](C)O)[C@@H](C)CC)C(=O)O
B4: exendin-4 peptide analogue SEQ ID NO: 64 (peptide)
peptide: Y[Aib]EGTFTSDLSIQK([γGlu-Stearoyl])EERAVRLFIEWLKAGGPSSGAPPPS-NH2
modifications: N-terminus assumed
SMILES: CCCCCCCCCCCCCCCCCC(=O)N[C@@H](CCC(=O)NCCCC[C@H](NC(=O)[C@H](CCC(N)=O)NC(=O)[C@@H](NC(=O)[C@H](CO)NC(=O)[C@H](CC(C)C)NC(=O)[C@H](CC(=O)O)NC(=O)[C@H](CO)NC(=O)[C@@H](NC(=O)[C@H](Cc1ccccc1)NC(=O)[C@@H](NC(=O)CNC(=O)[C@H](CCC(=O)O)NC(=O)C(C)(C)NC(=O)[C@@H](N)Cc1ccc(O)cc1)[C@@H](C)O)[C@@H](C)O)[C@@H](C)CC)C(=O)N[C@@H](CCC(=O)O)C(=O)N[C@@H](CCC(=O)O)C(=O)N[C@@H](CCCNC(=N)N)C(=O)N[C@@H](C)C(=O)N[C@H](C(=O)N[C@@H](CCCNC(=N)N)C(=O)N[C@@H](CC(C)C)C(=O)N[C@@H](Cc1ccccc1)C(=O)N[C@H](C(=O)N[C@@H](CCC(=O)O)C(=O)N[C@@H](Cc1c[nH]c2ccccc12)C(=O)N[C@@H](CC(C)C)C(=O)N[C@@H](CCCCN)C(=O)N[C@@H](C)C(=O)NCC(=O)NCC(=O)N1CCC[C@H]1C(=O)N[C@@H](CO)C(=O)N[C@@H](CO)C(=O)NCC(=O)N[C@@H](C)C(=O)N1CCC[C@H]1C(=O)N1CCC[C@H]1C(=O)N1CCC[C@H]1C(=O)N[C@@H](CO)C(N)=O)[C@@H](C)CC)C(C)C)C(=O)O
B5: exendin-4 peptide analogue SEQ ID NO: 13 (peptide)
peptide: Y[Aib]QGTFTSDLSIQK([γGlu-Palmitoyl])EKRYA[Aib]EFIEWLKNTGPSSGAPPPS-NH2
modifications: N-terminus assumed
SMILES: CCCCCCCCCCCCCCCC(=O)N[C@@H](CCC(=O)NCCCC[C@H](NC(=O)[C@H](CCC(N)=O)NC(=O)[C@@H](NC(=O)[C@H](CO)NC(=O)[C@H](CC(C)C)NC(=O)[C@H](CC(=O)O)NC(=O)[C@H](CO)NC(=O)[C@@H](NC(=O)[C@H](Cc1ccccc1)NC(=O)[C@@H](NC(=O)CNC(=O)[C@H](CCC(N)=O)NC(=O)C(C)(C)NC(=O)[C@@H](N)Cc1ccc(O)cc1)[C@@H](C)O)[C@@H](C)O)[C@@H](C)CC)C(=O)N[C@@H](CCC(=O)O)C(=O)N[C@@H](CCCCN)C(=O)N[C@@H](CCCNC(=N)N)C(=O)N[C@@H](Cc1ccc(O)cc1)C(=O)N[C@@H](C)C(=O)NC(C)(C)C(=O)N[C@@H](CCC(=O)O)C(=O)N[C@@H](Cc1ccccc1)C(=O)N[C@H](C(=O)N[C@@H](CCC(=O)O)C(=O)N[C@@H](Cc1c[nH]c2ccccc12)C(=O)N[C@@H](CC(C)C)C(=O)N[C@@H](CCCCN)C(=O)N[C@@H](CC(N)=O)C(=O)N[C@H](C(=O)NCC(=O)N1CCC[C@H]1C(=O)N[C@@H](CO)C(=O)N[C@@H](CO)C(=O)NCC(=O)N[C@@H](C)C(=O)N1CCC[C@H]1C(=O)N1CCC[C@H]1C(=O)N1CCC[C@H]1C(=O)N[C@@H](CO)C(N)=O)[C@@H](C)O)[C@@H](C)CC)C(=O)O
B6: exendin-4 peptide analogue SEQ ID NO: 14 (peptide)
peptide: Y[Aib]QGTFTSDLSIQK([γGlu-Palmitoyl])EKRAA[Aib]EFIEWLKA[dA]GPSSGAPPPS-NH2
modifications: N-terminus assumed
SMILES: CCCCCCCCCCCCCCCC(=O)N[C@@H](CCC(=O)NCCCC[C@H](NC(=O)[C@H](CCC(N)=O)NC(=O)[C@@H](NC(=O)[C@H](CO)NC(=O)[C@H](CC(C)C)NC(=O)[C@H](CC(=O)O)NC(=O)[C@H](CO)NC(=O)[C@@H](NC(=O)[C@H](Cc1ccccc1)NC(=O)[C@@H](NC(=O)CNC(=O)[C@H](CCC(N)=O)NC(=O)C(C)(C)NC(=O)[C@@H](N)Cc1ccc(O)cc1)[C@@H](C)O)[C@@H](C)O)[C@@H](C)CC)C(=O)N[C@@H](CCC(=O)O)C(=O)N[C@@H](CCCCN)C(=O)N[C@@H](CCCNC(=N)N)C(=O)N[C@@H](C)C(=O)N[C@@H](C)C(=O)NC(C)(C)C(=O)N[C@@H](CCC(=O)O)C(=O)N[C@@H](Cc1ccccc1)C(=O)N[C@H](C(=O)N[C@@H](CCC(=O)O)C(=O)N[C@@H](Cc1c[nH]c2ccccc12)C(=O)N[C@@H](CC(C)C)C(=O)N[C@@H](CCCCN)C(=O)N[C@@H](C)C(=O)N[C@H](C)C(=O)NCC(=O)N1CCC[C@H]1C(=O)N[C@@H](CO)C(=O)N[C@@H](CO)C(=O)NCC(=O)N[C@@H](C)C(=O)N1CCC[C@H]1C(=O)N1CCC[C@H]1C(=O)N1CCC[C@H]1C(=O)N[C@@H](CO)C(N)=O)[C@@H](C)CC)C(=O)O

*1 amine or outer side, *2 acyl side, *3 side chain or, on linkers, in order; H or OH if unused. Where no end group is shown, it is not given here. Side-chain parts run from the residue outwards. [ ]: non-standard residue; d: D form. The star is where a group is joined. γGlu = O=C(O)[C@H](CCC(=O)[*:2])N[*:1]; Stearoyl = CCCCCCCCCCCCCCCCCC(=O)*; Palmitoyl = CCCCCCCCCCCCCCCC(=O)*; Aib = CC(C)(N)C(=O)O

In the first experiment the target is human GLP-1 receptor (human, UniProt P43220 24-463). Nature of the experiment: cell-based or functional assay.
Turning to B1, the “EC50 hGLP-1 R” value was 0.0069 nM.
Same read-out and setting: to B2 belongs 0.0036 nM.
Still for that read-out and setting: to B3 belongs 0.0055 nM; to B4, 0.0102 nM; to B5, 0.0141 nM.
Same read-out and setting: in the case of B6 it was 0.0065 nM.

Another experiment has as its target T1, human GIP receptor (human, UniProt P48546 22-466).
T1 sequence (looked up): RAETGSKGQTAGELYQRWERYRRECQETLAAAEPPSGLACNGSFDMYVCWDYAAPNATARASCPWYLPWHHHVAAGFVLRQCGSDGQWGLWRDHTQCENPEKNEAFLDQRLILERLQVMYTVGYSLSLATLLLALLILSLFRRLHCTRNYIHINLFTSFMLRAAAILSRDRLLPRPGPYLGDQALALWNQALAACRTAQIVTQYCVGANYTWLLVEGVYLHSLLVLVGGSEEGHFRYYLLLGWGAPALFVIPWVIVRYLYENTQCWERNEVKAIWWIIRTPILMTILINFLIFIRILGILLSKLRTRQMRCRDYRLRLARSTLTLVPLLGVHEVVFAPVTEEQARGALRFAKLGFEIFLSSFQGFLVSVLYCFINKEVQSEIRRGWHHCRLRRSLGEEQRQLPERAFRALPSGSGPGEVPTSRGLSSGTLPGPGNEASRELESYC
Nature of the experiment: cell-based or functional assay.
Regarding B1, the “EC50 hGIP R” value worked out at 0.0114 nM.
As for B2, the “EC50 hGIP R” value is 0.0826 nM.
With B3, the “EC50 hGIP R” value was found to be 0.008 nM.
On the same count and under the same terms, in the case of B4 it was 0.0096 nM; in that of B5, 0.0263 nM; in that of B6, 0.0062 nM.

The target of another experiment is human glucagon receptor (human, UniProt P47871 26-477). Nature of the experiment: cell-based or functional assay.
Sequence of human glucagon receptor (P47871 26-477): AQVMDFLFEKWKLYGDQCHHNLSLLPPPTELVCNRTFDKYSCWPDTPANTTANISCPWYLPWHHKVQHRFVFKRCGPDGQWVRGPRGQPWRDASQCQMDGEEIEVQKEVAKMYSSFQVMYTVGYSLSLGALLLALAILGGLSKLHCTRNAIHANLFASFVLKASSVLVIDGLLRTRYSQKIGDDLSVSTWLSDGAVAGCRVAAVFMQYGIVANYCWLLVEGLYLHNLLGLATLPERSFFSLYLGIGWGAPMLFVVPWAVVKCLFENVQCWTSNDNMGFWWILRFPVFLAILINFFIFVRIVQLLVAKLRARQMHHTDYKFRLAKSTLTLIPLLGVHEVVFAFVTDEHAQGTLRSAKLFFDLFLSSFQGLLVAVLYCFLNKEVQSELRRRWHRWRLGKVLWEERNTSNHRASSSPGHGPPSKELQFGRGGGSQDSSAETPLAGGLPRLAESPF
For B1, the “EC50 hGLUC R” value came to 0.054 nM.
The same measure, in the same setting: in the case of B2 it was 0.0052 nM; in that of B3, 0.139 nM; in that of B4, 75.1 nM.
As for B5, the “EC50 hGLUC R” value is 0.0202 nM.
The same measure, in the same setting: in the case of B6 it was 0.0623 nM.
